From US7407939B2, “Protein kinase inhibitors comprising ATP mimetics conjugated to peptides or peptidomimetics” (CureGenics Ltd., priority 2001, dated 2008)
Where two headings read alike, the source gives them in different places. *1 amine or outer side, *2 acyl side, *3 side chain or, on linkers, in order; H or OH if unused. Where a SMILES comes first, the peptide text is derived from it. Where no end group is shown, it is not given here. Side-chain parts run from the residue outwards. [ ]: non-standard residue; d: D form. The star is where a group is joined. X1 = 5‑aminoethylsulfonamide isoquinoline, O=S(=O)(NCCN*)c1cccc2cnccc12; Isoquinoline5sulfonyl = O=S(=O)(c1cccc2cnccc12)*; Ethylenediamine = C(CN[*:2])N[*:1]; hLeu = CC(C)CC[C@H](N)C(=O)O; Nle = CCCC[C@H](N)C(=O)O; Orn = NCCC[C@H](N)C(=O)O; Dab = NCC[C@H](N)C(=O)O; Nva = CCC[C@H](N)C(=O)O; Abu = CC[C@H](N)C(=O)O; Dap = NC[C@H](N)C(=O)O; GlyNH2 = aminoglycine; βAla = NCCC(=O)O

Columns and labels:
[1] = molecular target: T1, PKB (Homo sapiens, UniProt P31749); test: PKB in vitro kinase activity assay (soluble His-HA-PKB / SPA bead screening); assay type: biochemical; design: % Inhibition PKB I / % Inhibition PKB II: concentration or dose not given beside the values; details: for PKB-kinase (spa) Assay 1, % inhibition of kinase activity / PKB-kinase (spa) Assay 2, % inhibition of kinase activity / inhibition at 1 µM: 1 μM compound concentration; for % Inhibition PKB I / % Inhibition PKB II: plate screening
T1 construct: His; HA; made in house

[2] = molecular target: T2, PKA (Bos taurus, UniProt P00517); test: In vitro PKA kinase activity assay (kemptide / SPA beads); assay type: biochemical; design: % Inhibition PKA: concentration or dose not given beside the values; details: for PKA-kinase Assay 1, % inhibition of kinase activity / PKA-kinase Assay 2, % inhibition of kinase activity / inhibition at 1 µM: 1 μM compound concentration; for % Inhibition PKA: plate screening;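 as to all read-outs here: Cell-free assay of purified PKA catalytic subunit phosphorylating the 7-mer kemptide substrate, run in MOPS buffer with magnesium acetate and BSA, with blank wells lacking enzyme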
T2 construct: purchased Promega

[3] = Table 3, linear 7-mer peptides, read-out: Activity PKB
[4] = Table 3, linear 7-mer peptides, read-out: Activity PKA
[5] = Table 10, accurate IC50 curve, peptide moiety alone, read-out: IC50 μM PKB
[6] = Table 10, accurate IC50 curve, peptide moiety alone, read-out: IC50 μM PKA
[7] = chimeric PTR compounds (peptide conjugated to isoquinoline small molecule), read-out: PKB IC50
[8] = chimeric PTR compounds (peptide conjugated to isoquinoline small molecule), read-out: PKA IC50
[9] = Assay 1, read-out: PKB-kinase (spa) Assay 1, % inhibition of kinase activity
[10] = Assay 2, read-out: PKB-kinase (spa) Assay 2, % inhibition of kinase activity

T1 sequence (P31749 whole entry, species assumed): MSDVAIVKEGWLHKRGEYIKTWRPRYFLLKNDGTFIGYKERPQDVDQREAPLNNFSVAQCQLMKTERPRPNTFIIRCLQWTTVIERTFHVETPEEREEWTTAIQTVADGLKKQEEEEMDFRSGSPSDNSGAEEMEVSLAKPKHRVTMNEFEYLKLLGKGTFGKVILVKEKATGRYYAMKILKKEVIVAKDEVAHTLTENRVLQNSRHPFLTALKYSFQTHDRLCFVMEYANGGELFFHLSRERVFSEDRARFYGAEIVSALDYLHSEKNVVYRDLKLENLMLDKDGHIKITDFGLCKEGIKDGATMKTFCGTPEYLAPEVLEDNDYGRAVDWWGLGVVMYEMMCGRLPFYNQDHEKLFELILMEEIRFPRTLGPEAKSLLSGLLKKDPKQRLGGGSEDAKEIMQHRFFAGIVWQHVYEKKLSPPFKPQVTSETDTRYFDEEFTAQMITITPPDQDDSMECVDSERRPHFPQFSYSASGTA

Row | Compound | PKB-kinase (spa) Assay 1, % inhibition of kinase activity ([1]; Assay 1) [%] | PKB-kinase (spa) Assay 2, % inhibition of kinase activity ([1]; Assay 2) [%] | PKA-kinase Assay 1, % inhibition of kinase activity ([2]; Assay 1) [%] | PKA-kinase Assay 2, % inhibition of kinase activity ([2]; Assay 2) [%] | further results
1 | 60020-35: Arg-Pro-Arg-Dap-Glu(Gly-5-aminoethylsulfonamide isoquinoline)-Orn-Phe (RPR[Dap]E([Gly-X1])[Orn]F; not fully specified) | 43 | 56 | 95 | 96 | 
2 | 60020-52: Arg-Pro-Arg-Abu-Glu(Gly-5-aminoethylsulfonamide isoquinoline)-Orn-Hol (RPR[Abu]E([Gly-X1])[Orn][hLeu]) | 56 | 53 | 92 | 92 | 
3 | 60020-43: Arg-Pro-Arg-Orn-Glu(Gly-5-aminoethylsulfonamide isoquinoline)-Orn-Phe (RPR[Orn]E([Gly-X1])[Orn]F) | 48 | 62 | 96 | 96 | 
4 | 60020-37: Arg-Pro-Arg-Dap-Glu(Gly-5-aminoethylsulfonamide isoquinoline)-Ala-Phe (RPR[Dap]E([Gly-X1])AF) | 53 | 44 | 98 | 99 | 
5 | CC[C@H](NC(=O)[C@H](CO)NC(=O)[C@@H](NC(=O)[C@H](CCCNC(=N)N)NC(=O)[C@@H]1CCCN1C(=O)[C@@H](N)CCCNC(=N)N)C(C)C)C(=O)N[C@@H](Cc1ccccc1)C(N)=O [TY 60002-61, Arg-Pro-Arg-Val-Ser-Abu-Phe] (H-RPRVS[Abu]F-NH2; N-terminus and C-terminus assumed) |  |  |  |  | IC50 [1, 3]: 5 µM; IC50 [2, 4]: > 40 µM
6 | 60005-32 (RPRT[GlyNH2]A[hLeu]) [Compound 60005-32] |  |  |  |  | % Inhibition PKB I ([1]; peptide moiety alone): 43%; % Inhibition PKB II ([1]; peptide moiety alone): 44%; % Inhibition PKA ([2]; peptide moiety alone): 4%
7 | 60020-9: Arg-Pro-Arg-Orn-Glu(5-aminoethylsulfonamide isoquinoline)-Dab-Phe (RPR[Orn]E(X1)[Dab]F) | 71 | 57 | 96 | 97 | 
8 | CCC[C@H](NC(=O)[C@H](CCCNC(=N)N)NC(=O)[C@@H]1CCCN1C(=O)[C@@H](N)CCCNC(=N)N)C(=O)NCC(=O)N[C@@H](C)C(=O)N[C@@H](CCC(C)C)C(N)=O [60006-18A] (H-RPR[Nva]GA[hLeu]-NH2; N-terminus and C-terminus assumed) |  |  |  |  | IC50 [1, 5]: 9.45 µM; % Inhibition PKB I ([1]; peptide moiety alone): 47%; % Inhibition PKB II ([1]; peptide moiety alone): 52%; IC50 [2, 6]: > 100 µM; % Inhibition PKA ([2]; peptide moiety alone): 11%
9 | 60020-10: Arg-Pro-Arg-Orn-Glu(5-aminoethylsulfonamide isoquinoline)-Dab-Hol (RPR[Orn]E(X1)[Dab][hLeu]) | 45 | 48 | 92 | 94 | 
10 | CCCC[C@H](NC(=O)[C@H](CCCNC(=N)N)NC(=O)[C@@H]1CCCN1C(=O)[C@@H](N)CCCNC(=N)N)C(=O)N[C@@H](CCC(=O)NCCNS(=O)(=O)c1cccc2cnccc12)C(=O)N[C@@H](CO)C(=O)N[C@@H](Cc1ccccc1)C(N)=O [compound 6128] |  |  |  |  | IC50 [1, 7]: 9 µM; IC50 [2, 8]: 0.1 µM
11 | 60020-44: Arg-Pro-Arg-Orn-Glu(Gly-5-aminoethylsulfonamide isoquinoline)-Orn-Hol (RPR[Orn]E([Gly-X1])[Orn][hLeu]) | 54 | 67 | 95 | 95 | 
12 | 60020-36: Arg-Pro-Arg-Dap-Glu(Gly-5-aminoethylsulfonamide isoquinoline)-Orn-Hol (RPR[Dap]E([Gly-X1])[Orn][hLeu]) | 69 | 71 | 93 | 94 | 
13 | 60020-51: Arg-Pro-Arg-Abu-Glu(Gly-5-aminoethylsulfonamide isoquinoline)-Orn-Phe (RPR[Abu]E([Gly-X1])[Orn]F) | 47 | 37 | 94 | 95 | 
14 | 60002-88 (RPRT[Abu][Dap]F) [Compound 60002-88] |  |  |  |  | % Inhibition PKB I ([1]; peptide moiety alone): 40%; % Inhibition PKA ([2]; peptide moiety alone): −3%
15 | 60020-50: Arg-Pro-Arg-Abu-Glu(Gly-5-aminoethylsulfonamide isoquinoline)-Dab-Hol (RPR[Abu]E([Gly-X1])[Dab][hLeu]) | 60 | 54 | 97 | 97 | 
16 | CC[C@H](NC(=O)[C@H](CO)NC(=O)[C@@H](NC(=O)[C@H](CCCNC(=N)N)NC(=O)[C@@H]1CCCN1C(=O)[C@@H](N)CCCNC(=N)N)[C@@H](C)O)C(=O)N[C@@H](CCC(C)C)C(N)=O [TY 60002-73, Arg-Pro-Arg-Thr-Ser-Abu-Hol] (H-RPRTS[Abu][hLeu]-NH2; N-terminus and C-terminus assumed) |  |  |  |  | IC50 [1, 3]: 5 µM; IC50 [1, 5]: 34 µM; % Inhibition PKB I ([1]; peptide moiety alone): 44%; IC50 [2, 4]: > 40 µM; IC50 [2, 6]: 228 µM; % Inhibition PKA ([2]; peptide moiety alone): 8%
17 | 60020-1: Arg-Pro-Arg-Dap-Glu(5-aminoethylsulfonamide isoquinoline)-Dab-Phe (RPR[Dap]E(X1)[Dab]F) | 67 | 65 | 98 | 99 | 
18 | CCCC[C@H](NC(=O)[C@H](CCCNC(=N)N)NC(=O)[C@@H]1CCCN1C(=O)[C@@H](N)CCCNC(=N)N)C(=O)N[C@@H](CCC(=O)NCC(=O)NCCNS(=O)(=O)c1cccc2cnccc12)C(=O)N[C@@H](CCN)C(=O)N[C@@H](Cc1ccccc1)C(N)=O [60020-57, Arg-Pro-Arg-Nle-Glu-(Gly-5-aminoethylsulfonamide)-Dab-Phe] (H-RPR[Nle]E([Gly-Ethylenediamine-Isoquinoline5sulfonyl])[Dab]F-NH2) |  |  |  |  | inhibition at 1 µM [1, 9]: 92%; inhibition at 1 µM [1, 10]: 93%; IC50 ([1]; Table 1, most preferred compounds, read-out: IC50 PKB): 0.07 µM; inhibition at 1 µM ([2]; Assay 1, read-out: PKA-kinase Assay 1, % inhibition of kinase activity): 95%; inhibition at 1 µM ([2]; Assay 2, read-out: PKA-kinase Assay 2, % inhibition of kinase activity): 96%; IC50 ([2]; Table 1, most preferred compounds, read-out: IC50 PKA): 0.21 µM
19 | C[C@@H](O)[C@H](NC(=O)[C@H](CCCNC(=N)N)NC(=O)[C@@H]1CCCN1C(=O)[C@@H](N)CCCNC(=N)N)C(=O)N[C@@H](CC(=O)NCCNS(=O)(=O)c1cccc2cnccc12)C(=O)N[C@@H](CO)C(=O)N[C@@H](Cc1ccccc1)C(N)=O [compound 6130] (H-RPRTD([Ethylenediamine-Isoquinoline5sulfonyl])SF-NH2; N-terminus assumed) |  |  |  |  | IC50 [1, 7]: 9.5 µM; IC50 [2, 8]: 0.053 µM
20 | 60020-2: Arg-Pro-Arg-Dap-Glu(5-aminoethylsulfonamide isoquinoline)-Dab-Hol (RPR[Dap]E(X1)[Dab][hLeu]) | 47 | 48 | 94 | 95 | 
21 | CC(C)CC[C@H](NC(=O)[C@H](CCCN)NC(=O)[C@H](CCC(=O)NCCC(=O)NCCNS(=O)(=O)c1cccc2cnccc12)NC(=O)[C@H](CN)NC(=O)[C@H](CCCNC(=N)N)NC(=O)[C@@H]1CCCN1C(=O)[C@@H](N)CCCNC(=N)N)C(N)=O [60020-68] (H-RPR[Dap]E([βAla-Ethylenediamine-Isoquinoline5sulfonyl])[Orn][hLeu]-NH2; N-terminus assumed) |  |  |  |  | inhibition at 1 µM [1, 9]: 61%; inhibition at 1 µM [1, 10]: 74%; IC50 ([1]; Table 6, most active compounds from plate TY-60020, read-out: IC50 PKB): 0.5 µM; IC50 ([2]; Table 6, most active compounds from plate TY-60020, read-out: IC50 PKA): 0.25 µM
22 | 60020-34: Arg-Pro-Arg-Dap-Glu(Gly-5-aminoethylsulfonamide isoquinoline)-Dab-Hol (RPR[Dap]E([Gly-X1])[Dab][hLeu]) | 64 | 65 | 97 | 98 | 
23 | 60020-60: Arg-Pro-Arg-Nle-Glu(Gly-5-aminoethylsulfonamide isoquinoline)-Orn-Hol (RPR[Nle]E([Gly-X1])[Orn][hLeu]) | 59 | 70 | 87 | 89 | 
24 | 60020-49: Arg-Pro-Arg-Abu-Glu(Gly-5-aminoethylsulfonamide isoquinoline)-Dab-Phe (RPR[Abu]E([Gly-X1])[Dab]F) | 66 | 66 | 95 | 95 | 
25 | 60020-5: Arg-Pro-Arg-Dap-Glu(5-aminoethylsulfonamide isoquinoline)-Ala-Phe (RPR[Dap]E(X1)AF) | 46 | 26 |  |  | 
